Measured values: paper PMC11406361, “Several orphan solute carriers functionally identified as organic cation transporters: Substrates specificity compared with known cation transporters” (The Journal of Biological Chemistry, 2024)

Experiments:
Assay in all cases: cells, lysate or membranes
[1] = substrate: C[N+](C)(C)CCO; details: pH 7.4
[2] = substrate: COC(=O)[C@H]1[C@@H](OC(=O)c2ccccc2)C[C@@H]2CC[C@H]1N2C; details: pH 7.4
[3] = substrate: COc1ccc2c3c1O[C@H]1C(=O)CC[C@@]4(O)[C@@H](C2)N(C)CC[C@]314; details: pH 7.4
[4] = substrate: c1cnc2cc3c(cc2n1)[C@@H]1CNC[C@H]3C1; details: other: SLC35E2A, HEK293, net uptake over empty vector cells; pH 7.4
[5] = substrate: CCOC(=O)C1(c2ccccc2)CCN(C)CC1; details: other: SLC35G3, HEK293, net uptake over empty vector cells; pH 7.4
[6] = substrate: CCCN1CCCC[C@H]1C(=O)Nc1c(C)cccc1C; details: other: SLC35G3, HEK293, net uptake over empty vector cells; pH 7.4
[7] = substrate: Clc1cccc(Cl)c1N=C1NCCN1; details: other: SLC35G3, HEK293, net uptake over empty vector cells; pH 7.4
[8] = substrate: CNC(C)Cc1ccc2c(c1)OCO2; details: other: SLC35G3, HEK293, net uptake over empty vector cells; pH 7.4
[9] = substrate: CCCNC(C)C(=O)Nc1c(C)csc1C(=O)OC; details: other: SLC35G3, HEK293, net uptake over empty vector cells; pH 7.4
[10] = other: SLC35G4, HEK293, net uptake over empty vector cells
[11] = other: SLC35F3, HEK293, net uptake over empty vector cells
[12] = other: SLC35F4, HEK293, net uptake over empty vector cells
[13] = other: SLC44A1, HEK293, net uptake over empty vector cells
[14] = other: SLC35F2, HEK293, net uptake over empty vector cells
[15] = other: SLC35F5, HEK293, net uptake over empty vector cells
[16] = other: SLC35E4, HEK293, net uptake over empty vector cells

B1: SLC35G4 (Homo sapiens) (protein)
chain: MAGSHPYFNLPDSTHPSPPSTPPSLHWHQRCQPSDATNGLLVALLGGGLPAGFVGPLSRMAYQASNLPSLELVICRCLFHLPIALLLKLRGDPLLGPPDIRGRTCFCALLNVLNIGCAYSAVQVVPTGNAATVRKHSSTVCSAILTLCLESQVLSGYDWCGLLGSILGLIIIVGPGLWTLQEGTTGVYTGLGYVQAFLGGLALSLGLLVYRSLHFPSCLPTVAFLSGLVGLLGSVPGLFVLQSPVLPSDLLSWSCVGAVGILTLVSFTCVGYAVTKAHPALVCAVLHSEVVMALILQYFMLHETVAPSDIMGAGVVLGSIAIITARNLICERTGKVEE
In the case of B1, the Km [1, 10] is reported as 13.2 (±7.02) μM, the Vmax [1, 10] is reported as 0.000108 µmol/min/mg and the Vmax/Km [1, 10] is reported as 8.15 µL/min/mg.

B2: SLC35F3 (Homo sapiens) (protein)
chain: MKKHSARVAPLSACNSPVLTLTKVEGEERPRDSPGPAEAQAPAGVEAGGRASRRCWTCSRAQLKKIFWGVAVVLCVCSSWAGSTQLAKLTFRKFDAPFTLTWFATNWNFLFFPLYYVGHVCKSTEKQSVKQRYRECCRFFGDNGLTLKVFFTKAAPFGVLWTLTNYLYLHAIKKINTTDVSVLFCCNKAFVFLLSWIVLRDRFMGVRIVAAILAIAGIVMMTYADGFHSHSVIGIALVVASASMSALYKVLFKLLLGSAKFGEAALFLSILGVFNILFITCIPIILYFTKVEYWSSFDDIPWGNLCGFSVLLLTFNIVLNFGIAVTYPTLMSLGIVLSIPVNAVIDHYTSQIVFNGVRVIAIIIIGLGFLLLLLPEEWDVWLIKLLTRLKVRKKEEPAEGAADLSSGPQSKNRRARPSFAR
B2 was tested, and the Km [1, 11] was 112 (±96.4) μM, the Vmax [1, 11] was 0.000135 µmol/min/mg and the Vmax/Km [1, 11] was 1.21 µL/min/mg.

B3: SLC35E2A (Homo sapiens) (protein)
chain: MSSSVKTPALEELVPGSEEKPKGRSPLSWGSLFGHRSEKIVFAKSDGGTDENVLTVTITETTVIESDLGVWSSRALLYLTLWFFFSFCTLFLNKYILSLLGGEPSMLGAVQMLSTTVIGCVKTLVPCCLYQHKARLSYPPNFLMTMLFVGLMRFATVVLGLVSLKNVAVSFAETVKSSAPIFTVIMSRMILGEYTGRPSDREEREELQLQPGRGAAASDRRSPVPPSERHGVRPHGENLPGDFQVPQALHRVALSMALPCPMLPAS
B3 was tested, and the Km [2] was 165 (±47.7) μM, the Vmax [2] was 0.000683 µmol/min/mg and the Vmax/Km [2] was 4.14 µL/min/mg. The Km [3] was 92.0 (±31.0) μM, the Vmax [3] was 0.000317 µmol/min/mg and the Vmax/Km [3] was 3.44 µL/min/mg. For the same protein, the Km [4] was 474 (±190) μM, the Vmax [4] was 0.000847 µmol/min/mg and the Vmax/Km [4] was 1.79 µL/min/mg.

B4: SLC35F4 (Homo sapiens) (protein)
chain: MDELLLDLFHKLTSGRQLAAGNGLCGISHKEQEVWKPGHNILVKMRKEDKSLVWLIHSTLARYTQVTNFLGTSRSSVTRCKPGANCPSSHSGISRQLSPLSVTEDSSAPILELQNQGSSGVCGHRVERQNRSADDGTQTHSENSSQENRIKARCLSCTSMVLKGIWGLLIILSVSSSWVGTTQIVKITYKNFYCPFFMTWFSTNWNIMFFPVYYSGHLATAQEKQSPMKKFRECSRIFGEDGLTLKLFLKRTAPFSILWTLTNYLYLLALKKLTATDVSALFCCNKAFVFLLSWIVLKDRFMGVRIVAAIMAITGIVMMAYADNFHADSIIGVAFAVGSASTSALYKVLFKMFLGSANFGEAAHFVSTLGFFNLIFISFTPVILYFTKVEHWSSFAALPWGCLCGMAGLWLAFNILVNVGVVLTYPILISIGTVLSVPGNAAVDLLKQEVIFNVVRLAATIIICIGFLLMLLPEEWDEITLRFINSLKEKKSEEHVDDVTDPSIHLRGRGRANGTVSIPLA
For B4, the Km [1, 12] was 47.4 (±48.1) μM, the Vmax [1, 12] was 6.28e-05 µmol/min/mg and the Vmax/Km [1, 12] was 1.32 µL/min/mg.

B5: SLC44A1 (Homo sapiens) (protein)
chain: MGCCSSASSAAQSSKREWKPLEDRSCTDIPWLLLFILFCIGMGFICGFSIATGAAARLVSGYDSYGNICGQKNTKLEAIPNSGMDHTQRKYVFFLDPCNLDLINRKIKSVALCVAACPRQELKTLSDVQKFAEINGSALCSYNLKPSEYTTSPKSSVLCPKLPVPASAPIPFFHRCAPVNISCYAKFAEALITFVSDNSVLHRLISGVMTSKEIILGLCLLSLVLSMILMVIIRYISRVLVWILTILVILGSLGGTGVLWWLYAKQRRSPKETVTPEQLQIAEDNLRALLIYAISATVFTVILFLIMLVMRKRVALTIALFHVAGKVFIHLPLLVFQPFWTFFALVLFWVYWIMTLLFLGTTGSPVQNEQGFVEFKISGPLQYMWWYHVVGLIWISEFILACQQMTVAGAVVTYYFTRDKRNLPFTPILASVNRLIRYHLGTVAKGSFIITLVKIPRMILMYIHSQLKGKENACARCVLKSCICCLWCLEKCLNYLNQNAYTATAINSTNFCTSAKDAFVILVENALRVATINTVGDFMLFLGKVLIVCSTGLAGIMLLNYQQDYTVWVLPLIIVCLFAFLVAHCFLSIYEMVVDVLFLCFAIDTKYNDGSPGREFYMDKVLMEFVENSRKAMKEAGKGGVADSRELKPMASGASSA
For B5, the Km [1, 13] was 28.9 (±18.5) μM, the Vmax [1, 13] was 6.01e-05 µmol/min/mg and the Vmax/Km [1, 13] was 2.08 µL/min/mg.

B6: SLC35G3 (Homo sapiens) (protein)
chain: MAGSHPYFNQPDSTHPSPPSAPPSLRWYQRCQPSDATSGLLVALLGGGLPAGFVGPLSRMAYQASNLPSLELLIWRCLFHLPIALLLKLRGDPLLGTPDIRSRAFFCALLNILSIGCAYSAVQVVPAGNAATVRKGSSTVCSAVLTLCLESQGLSGYDWCGLLGCILGLIIIVGPGLWTLQEGTTGVYTALGYVEAFLGGLALSLRLLVYRSLHFPPCLPTVAFLSGLVGLLGSVPGLFVLQAPVLPSDLLSWSCVGAVGILALVSFTCVGYAVTKAHPALVCAVLHSEVVVALILQYYMLHETVAPSDIVAAGVVLGSIAIITAQNLSCERTGRVEE
B6 was tested, and the Km [5] was 57.7 (±44.9) μM, the Vmax [5] was 0.000265 µmol/min/mg and the Vmax/Km [5] was 4.6 µL/min/mg. For the same protein, the Km [2] was 466 (±117) μM, the Vmax [2] was 0.000739 µmol/min/mg and the Vmax/Km [2] was 1.59 µL/min/mg. The Km [6] was 151 (±60.7) μM, the Vmax [6] was 0.000551 µmol/min/mg and the Vmax/Km [6] was 3.64 µL/min/mg. For the same protein, the Km [7] was 48.2 (±23.9) μM, the Vmax [7] was 0.000234 µmol/min/mg and the Vmax/Km [7] was 4.85 µL/min/mg. The Km [8] was 141 (±50.4) μM, the Vmax [8] was 0.000606 µmol/min/mg and the Vmax/Km [8] was 4.31 µL/min/mg. The Km [9] was 143 (±119) μM, the Vmax [9] was 0.000291 µmol/min/mg and the Vmax/Km [9] was 2.04 µL/min/mg.

B7: SLC35F2 (Homo sapiens) (protein)
chain: MEADSPAGPGAPEPLAEGAAAEFSSLLRRIKGKLFTWNILKTIALGQMLSLCICGTAITSQYLAERYKVNTPMLQSFINYCLLFLIYTVMLAFRSGSDNLLVILKRKWWKYILLGLADVEANYVIVRAYQYTTLTSVQLLDCFGIPVLMALSWFILHARYRVIHFIAVAVCLLGVGTMVGADILAGREDNSGSDVLIGDILVLLGASLYAISNVCEEYIVKKLSRQEFLGMVGLFGTIISGIQLLIVEYKDIASIHWDWKIALLFVAFALCMFCLYSFMPLVIKVTSATSVNLGILTADLYSLFVGLFLFGYKFSGLYILSFTVIMVGFILYCSTPTRTAEPAESSVPPVTSIGIDNLGLKLEENLQETHSAVL
B7 was tested, and the Km [2] was 161 (±99.5) μM, the Vmax [2] was 0.000415 µmol/min/mg and the Vmax/Km [2] was 2.58 µL/min/mg. The Km [1, 14] was 32.6 (±14.9) μM, the Vmax [1, 14] was 8.1e-05 µmol/min/mg and the Vmax/Km [1, 14] was 2.48 µL/min/mg.

B8: SLC35F5 (Homo sapiens) (protein)
chain: MVPPRRHRGAGRPGVLSSSPPFRLRSAKFSGIALEDLRRALKTRLQMVCVFVMNRMNSQNSGFTQRRRMALGIVILLLVDVIWVASSELTSYVFTQYNKPFFSTFAKTSMFVLYLLGFIIWKPWRQQCTRGLRGKHAAFFADAEGYFAACTTDTTMNSSLSEPLYVPVKFHDLPSEKPESTNIDTEKTPKKSRVRFSNIMEIRQLPSSHALEAKLSRMSYPVKEQESILKTVGKLTATQVAKISFFFCFVWFLANLSYQEALSDTQVAIVNILSSTSGLFTLILAAVFPSNSGDRFTLSKLLAVILSIGGVVLVNLAGSEKPAGRDTVGSIWSLAGAMLYAVYIVMIKRKVDREDKLDIPMFFGFVGLFNLLLLWPGFFLLHYTGFEDFEFPNKVVLMCIIINGLIGTVLSEFLWLWGCFLTSSLIGTLALSLTIPLSIIADMCMQKVQFSWLFFAGAIPVFFSFFIVTLLCHYNNWDPVMVGIRRIFAFICRKHRIQRVPEDSEQCESLISMHSVSQEDGAS
With B8 the Km [1, 15] was 5.83 (±3.23) μM, the Vmax [1, 15] was 3.48e-05 µmol/min/mg and the Vmax/Km [1, 15] was 5.97 µL/min/mg.

B9: SLC35E4 (Homo sapiens) (protein)
chain: MCRCPPEHHDGRMTSAEVGAAAGGAQAAGPPEWPPGSPQALRQPGRARVAMAALVWLLAGASMSSLNKWIFTVHGFGRPLLLSALHMLVAALACHRGARRPMPGGTRCRVLLLSLTFGTSMACGNVGLRAVPLDLAQLVTTTTPLFTLALSALLLGRRHHPLQLAAMGPLCLGAACSLAGEFRTPPTGCGFLLAATCLRGLKSVQQSALLQEERLDAVTLLYATSLPSFCLLAGAALVLEAGVAPPPTAGDSRLWACILLSCLLSVLYNLASFSLLALTSALTVHVLGNLTVVGNLILSRLLFGSRLSALSYVGIALTLSGMFLYHNCEFVASWAARRGLWRRDQPSKGL
In the case of B9, the Km [1, 16] is reported as 245 (±331) μM, the Vmax [1, 16] is reported as 4.19e-05 µmol/min/mg and the Vmax/Km [1, 16] is reported as 0.17 µL/min/mg.
